System: anti-ras optimised three-finger peptide (F1 +3 Asn) finger 1 helix position +3 S->N (synthetic)
Assay: ELISA
Details: apparent Kd; phage-displayed; equal to wild-type Zif268 DBD; Zn

GTGGTGGGCGCCGTCGGTGTGGGCAAG (double strand) [EJ (G12V) mutant H-ras site]
Kd: 3 nM

Source: US6746838
